This is an account of results in patent publication US11278600B2, “Human alpha-galactosidase variants” (Codexis, Inc., priority 2014, dated 2022).

Common to all, as to format: biochemical
Series [1] can be described thus: HTP-analysis of supernatants pretreated with base (MUGal hydrolysis). The note with it: for Relative Activity of GLA Variants After Challenge at pH 7.6: activity of the variant/activity of Rd2BB (SEQ ID NO: 10), yeast supernatant. The gist of the method: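 GLA variants were secreted by transformed INVSc1 yeast grown 66-84 h at 30° C. Supernatants were exposed to neutral-to-basic buffers (pH 7.0-9.7) at 37° C for 1-18 h, then assayed with MUGal in acidic citrate/McIlvaine buffer, with fluorescence read after quenching.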

Series [2] can be described thus: HTP-analysis of yeast culture supernatants, no challenge (MUGal hydrolysis). In outline:
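GLA variants expressed in yeast INVSc1, secreted into SD-Ura broth over 66-84 h at 30° C; clarified supernatants tested without challenge. Supernatant mixed with McIlvaine buffer pH 4.8 and 2 mM MUGal (citrate/KCl, pH 4.6), 37° C for 30-180 min, carbonate-quenched, fluorescence Ex 355/Em 448 nm.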

Series [3] is described as follows: HTP-analysis of supernatants pretreated with acid (MUGal hydrolysis). The note with it: for Relative Activity of GLA Variants After Challenge at pH 4.2: activity of the variant/activity of Rd2BB (SEQ ID NO: 10), yeast supernatant. In outline: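 GLA variants were secreted from INVSc1 yeast grown 66-84 h at 30° C. in SD-Ura with 2% glucose; supernatants were mixed with McIlvaine buffer pH 3.3-4.3 and held at 37° C. for 1-3 h. Residual activity on MUGal at pH 4.8 was then measured by fluorescence.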

Where [4] appears, read: activity of the variant/activity of Rd2BB (SEQ ID NO: 10), yeast supernatant.

B1: 228 (protein)
chain: LDNGLARTPTMGWLHWERFMCNLDCQEEPDSCISEKLFMEMAELMVSEGWKDAGYEYLCIDDCWMAPQRDSEGRLQADPQRFPHGIRQLANYVHSKGLKLGIYADVGNKTCAGFPGSFGYYDIDAQTFADWGVDLLKFDGCYCDSLENLADGYKHMSLALNRTGRSIVYSCEWPLYMWPFQKPNYTEIRQYCNHWRNFADIDDSWASIKSILDWTSFNQERIVDVAGPGGWNDPDMLVIGNFGLSWNQQVTQMALWAIMAAPLFMSNDLRHISPQAKALLQDKDVIAINQDPLGKQGYQLRQGDNFEVWERPLSGLAWAVAMINRQEIGGPRSYTIAVASLGKGVACNPACFITQLLPVKRKLGFYEWTSRLKSHINPTGTVLLQLENTMQMSKDLLL
modifications: Synthetic Polypeptide sequence of Variant No. 228 of mature Human GLA
On to B1, for which the “Relative Activity of GLA Variants After Challenge at pH 7.6” value (shortened to “Relative Activity … at pH 7.6”) in series [1] was “+ (+ = 0.5 to 1.5 relative activity over Rd2BB (SEQ ID NO: 10))”. Further, the “Relative Activity of GLA Variants After No Challenge (NC)” value in series [2] (setting [4]) is listed as “+ (+ = 0.5 to 1.5 relative activity over Rd2BB (SEQ ID NO: 10))”. Moreover, the “Relative Activity of GLA Variants After Challenge at pH 4.2” value (shortened to “Relative Activity … at pH 4.2”) in series [3] was “+ (+ = 0.5 to 1.5 relative activity over Rd2BB (SEQ ID NO: 10))”.

B2: 232 (protein)
chain: LDNGLARTPTMGWLHWERFMCNLDCQEEPDSCISEKLFMEMAELMVSEGWKDAGYEYLCIDDCWMAPQRDSEGRLQADPQRFPHGIRQLANYVHSKGLKLGIYADVGNKTCAGFPGSFGYYDIDAQTFADWGVDLLKFDGCYCDSLENLADGYKHMSLALNRTGRSIVYSCEWPLYMWPFQKPNYTEIRQYCNHWRNFADIDDSWASIKSILDWTSFNQERIVDVAGPGGWNDPDMLVIGNFGLSWNQQVTQMALWAIMAAPLFMSNDLRHISPQAKALLQDKDVIAINQDPLGKQGYQLRQGDNFEVWERPLSGLAWAVAMINRQEIGGPRSYTIAVASLGKGVACNPACFITQLLPVKRKLGFYEWSSRLRSHINPTGTVLLQLENTMQMSKDLLL
modifications: Synthetic Polypeptide sequence of Variant No. 232 of mature Human GLA
As for B2, the “Relative Activity … at pH 7.6” value in series [1] was “++ (++ = 1.5 to 2.5 relative activity over Rd2BB (SEQ ID NO: 10))”. Moreover, in series [2] (setting [4]), the “Relative Activity of GLA Variants After No Challenge (NC)” value was “++ (++ = 1.5 to 2.5 relative activity over Rd2BB (SEQ ID NO: 10))”. In addition, in series [3], the “Relative Activity … at pH 4.2” value is “++ (++ = 1.5 to 2.5 relative activity over Rd2BB (SEQ ID NO: 10))”.

B3: 192 (protein)
chain: LDNGLARTPTMGWLHWERFMCNLDCQEEPDSCISEKLFMEMAELMVSEGWKDAGYEYLCIDDCWMAPQRDSEGRLQADPQRFPHGIRQLANYVHSKGLKLGIYADVGNKTCAGFPGSFGYYDIDAQTFADWGVDLLKFDGCYCDSLENLADGYKHMSLALNRTGRSIVYSCEWPLYMWPFQKPNYTEIRQYCNHWRNFADIDDSWESIKSILDWTSFNQERIVDVAGPGGWNDPDMLVIGNFGLSWNQQVTQMALWAIMAAPLFMSNDLRHISPQAKALLQDKDVIAINQDPLGKQGYQLRQGDNFEVWERPLSGLAWAVAMINRQEIGGPRSYTIAVASLGKGVACNPACFITQLLPVKRKLGFYEWTSRLRSHINPTGTVLLQLENTMQMSKDLLL
modifications: Synthetic Polypeptide sequence of Variant No. 192 of mature Human GLA
For B3, in series [1], the “Relative Activity … at pH 7.6” value is listed as “+ (+ = 0.5 to 1.5 relative activity over Rd2BB (SEQ ID NO: 10))”. Moreover, the “Relative Activity of GLA Variants After No Challenge (NC)” value in series [2] (setting [4]) is given as “+ (+ = 0.5 to 1.5 relative activity over Rd2BB (SEQ ID NO: 10))”. The “Relative Activity … at pH 4.2” value in series [3] was “+ (+ = 0.5 to 1.5 relative activity over Rd2BB (SEQ ID NO: 10))”.

B4: 229 (protein)
chain: LDNGLARTPTMGWLHWERFMCNLDCQEEPDSCISEKLFMEMAELMVSEGWKDAGYEYLCIDDCWMAPQRDSEGRLQADPQRFPHGIRQLANYVHSKGLKLGIYADVGNKTCAGFPGSFGYYDIDAQTFADWGVDLLKFDGCYCDSLENLADGYKHMSLALNRTGRSIVYSCEWPLYMWPFQKPNYTEIRQYCNHWRNFADIDDSWASIKSILDWTSFNQERIVDVAGPGGWNDPDMLVIGNFGLSWNQQVTQMALWAIMAAPLFMSNDLRHISPQAKALLQDKDVIAINQDPLGKQGYQLRQGDNFEVWERPLSGLAWAVAMINRQEIGGPRSYTIAVASLGKGVACNPACFITQLLPVKRKLGFYEWTSRLKSHVNPTGTVLLQLENTMQMSKDLLL
modifications: Synthetic Polypeptide sequence of Variant No. 229 of mature Human GLA
Regarding B4, in series [1], the “Relative Activity … at pH 7.6” value is reported as “+ (+ = 0.5 to 1.5 relative activity over Rd2BB (SEQ ID NO: 10))”. The “Relative Activity of GLA Variants After No Challenge (NC)” value in series [2] (setting [4]) is given as “+ (+ = 0.5 to 1.5 relative activity over Rd2BB (SEQ ID NO: 10))”. Further, the “Relative Activity … at pH 4.2” value in series [3] was “− (− = <0.5 relative activity over Rd2BB (SEQ ID NO: 10))”.

B5: 231 (protein)
chain: LDNGLARTPTMGWLHWERFMCNLDCQEEPDSCISEKLFMEMAELMVSEGWKDAGYEYLCIDDCWMAPQRDSEGRLQADPQRFPHGIRQLANYVHSKGLKLGIYADVGNKTCAGFPGSFGYYDIDAQTFADWGVDLLKFDGCYCDSLENLADGYKHMSLALNRTGRSIVYSCEWPLYMWPFQKPNYTEIRQYCNHWRNFADIDDSWASIKSILDWTSFNQERIVDVAGPGGWNDPDMLVIGNFGLSWNQQVTQMALWAIMAAPLFMSNDLRHISPQAKALLQDKDVIAINQDPLGKQGYQLRQGDNFEVWERPLSGLAWAVAMINRQEIGGPRSYTIAVASLGKGVACNPACFITQLLPVKRKLGFYEWDSRLRSHINPTGTVLLQLENTMQMSKDLLL
modifications: Synthetic Polypeptide sequence of Variant No. 231 of mature Human GLA
As to B5, in series [1], the “Relative Activity … at pH 7.6” value is recorded as “++ (++ = 1.5 to 2.5 relative activity over Rd2BB (SEQ ID NO: 10))”. In addition, the “Relative Activity of GLA Variants After No Challenge (NC)” value in series [2] (setting [4]) was “++ (++ = 1.5 to 2.5 relative activity over Rd2BB (SEQ ID NO: 10))”. For the same molecule, the “Relative Activity … at pH 4.2” value in series [3] is reported as “++ (++ = 1.5 to 2.5 relative activity over Rd2BB (SEQ ID NO: 10))”.

B6: 193 (protein)
chain: LDNGLARTPTMGWLHWERFMCNLDCQEEPDSCISEKLFMEMAELMVSEGWKDAGYEYLCIDDCWMAPQRDSEGRLQADPQRFPHGIRQLANYVHSKGLKLGIYADVGNKTCAGFPGSFGYYDIDAQTFADWGVDLLKFDGCYCDSLENLADGYKHMSLALNRTGRSIVYSCEWPLYMWPFQKPNYTEIRQYCNHWRNFADIDDSWGSIKSILDWTSFNQERIVDVAGPGGWNDPDMLVIGNFGLSWNQQVTQMALWAIMAAPLFMSNDLRHISPQAKALLQDKDVIAINQDPLGKQGYQLRQGDNFEVWERPLSGLAWAVAMINRQEIGGPRSYTIAVASLGKGVACNPACFITQLLPVKRKLGFYEWTSRLRSHINPTGTVLLQLENTMQMSKDLLL
modifications: Synthetic Polypeptide sequence of Variant No. 193 of mature Human GLA
Take B6: the “Relative Activity … at pH 7.6” value in series [1] is “+ (+ = 0.5 to 1.5 relative activity over Rd2BB (SEQ ID NO: 10))”. Moreover, the “Relative Activity of GLA Variants After No Challenge (NC)” value in series [2] (setting [4]) is “+ (+ = 0.5 to 1.5 relative activity over Rd2BB (SEQ ID NO: 10))”. The “Relative Activity … at pH 4.2” value in series [3] is given as “+ (+ = 0.5 to 1.5 relative activity over Rd2BB (SEQ ID NO: 10))”.

B7: 230 (protein)
chain: LDNGLARTPTMGWLHWERFMCNLDCQEEPDSCISEKLFMEMAELMVSEGWKDAGYEYLCIDDCWMAPQRDSEGRLQADPQRFPHGIRQLANYVHSKGLKLGIYADVGNKTCAGFPGSFGYYDIDAQTFADWGVDLLKFDGCYCDSLENLADGYKHMSLALNRTGRSIVYSCEWPLYMWPFQKPNYTEIRQYCNHWRNFADIDDSWASIKSILDWTSFNQERIVDVAGPGGWNDPDMLVIGNFGLSWNQQVTQMALWAIMAAPLFMSNDLRHISPQAKALLQDKDVIAINQDPLGKQGYQLRQGDNFEVWERPLSGLAWAVAMINRQEIGGPRSYTIAVASLGKGVACNPACFITQLLPVKRKLGFYEWTSRLRRHINPTGTVLLQLENTMQMSKDLLL
modifications: Synthetic Polypeptide sequence of Variant No. 230 of mature Human GLA
As for B7, in series [1], the “Relative Activity … at pH 7.6” value is given as “+ (+ = 0.5 to 1.5 relative activity over Rd2BB (SEQ ID NO: 10))”. Besides, in series [2] (setting [4]), the “Relative Activity of GLA Variants After No Challenge (NC)” value is recorded as “+ (+ = 0.5 to 1.5 relative activity over Rd2BB (SEQ ID NO: 10))”. The “Relative Activity … at pH 4.2” value in series [3] was “− (− = <0.5 relative activity over Rd2BB (SEQ ID NO: 10))”.

B8: 391 (protein)
chain: LDNGLARTPTMGWLHWERFMCNLDCQEEPDSCISEKLFMEMAERMVSEGWKDAGYEYLCIDDCWMAPQRDSEGRLQADPQRFPHGIRQLANYWHSKGLKLGIYADVGNKTCAGFPGSFGYYDIDAQTFADWGVDLLKFDGCYCDSLENLADGYKHMSLALNRTGRSIVYSCEWPLYMWPFQKPNYTEIRQYCNHWRNFADIDDSWKSIKSILDWTSRNQERIVDVAGPGGWNDPDMLVIGNFGLSWDQQVTQMALWAIMAAPLFMSNDLRHISPQAKALLQDKDVIAINQDPLGKQGYQLRKGDNFEVWERPLSGDAWAVAIINRQEIGGPRSYTIPVASLGKGVACNPACFITQLLPVKRQLGFYNWTSRLKSHINPTGTVLLQLENTMQMSLKDLL
modifications: Synthetic Polypeptide sequence of Variant No. 391 of mature Human GLA
As to B8, the “Relative Activity of GLA Variants After Challenge at pH 9.65” value in series [1] (activity of the variant/activity of Rd4BB (SEQ ID NO: 15), challenge at pH 9.65) is given as “− (<0.5 relative activity over Rd4BB (SEQ ID NO: 15))”. Further, the “Relative Activity of GLA Variants After No Challenge (NC)” value in series [2] (activity of the variant/activity of Rd4BB (SEQ ID NO: 15)) is “+ (0.5 to 1.5 relative activity over Rd4BB (SEQ ID NO: 15))”. Moreover, the “Relative Activity of GLA Variants After Challenge at pH 3.7” value in series [3] (activity of the variant/activity of Rd4BB (SEQ ID NO: 15), challenge at pH 3.7) was “+ (0.5 to 1.5 relative activity over Rd4BB (SEQ ID NO: 15))”.
